B1: CPEB3 Ribozyme (parent)
chain: GGGGGCCACAGCAGAAGCGUUCACGUCGCGGCCCCUGUCAGAUUCUGGUGAAUCUGCGAAUUCUGCUGU

Variants of: B1
Assay: self-cleavage, relative activity (ratio to wild type); higher = more cleavage; co-transcriptional

Row | Variant | self-cleavage
1 | GGGGGCCACAGCAGAAGCGUUCACGUCGCGGCCACUGUCAGAUGCUGGUGAAUCUGCGAAUUCUGCUGU | 0.526
2 | GGGGGCCACAGCAGAAGCGUUCACGUCGCGGCCACUGUCAGAUCCUGGUGAAUCUGCGAAUUCUGCUGU | 0.724
3 | GGGGGCCACAGCAGAAGCGUUCACGUCGCGGCCGCUGUCCGAUUCUGGUGAAUCUGCGAAUUCUGCUGU | 0.326
4 | GGGGGCCACAGCAGAAGCGUUCACGUCGCGGCCGCUGUCGGAUUCUGGUGAAUCUGCGAAUUCUGCUGU | 0.631
5 | GGGGGCCACAGCAGAAGCGUUCACGUCGCGGCCGCUGUCUGAUUCUGGUGAAUCUGCGAAUUCUGCUGU | 0.417
6 | GGGGGCCACAGCAGAAGCGUUCACGUCGCGGCCGCUGUCAGAUUCUGGUGAACCUGCGAAUUCUGCUGU | 0.562
7 | GGGGGCCACAGCAGAAGCGUUCACGUCGCGGCCGCUGUCAGAUUCUGGUGAAGCUGCGAAUUCUGCUGU | 0.27
8 | GGGGGCCACAGCAGAAGCGUUCACGUCGCGGCCGCUGUCAGAUUCUGAUGAAUCUGCGAAUUCUGCUGU | 0.765
9 | GGGGGCCACAGCAGAAGCGUUCACGUCGCGGCCGCUGUCAGAUUCUGCUGAAUCUGCGAAUUCUGCUGU | 0.722
10 | GGGGGCCACAGCAGAAGCGUUCACGUCGCGGCCGCUGUCAGAUUCUGUUGAAUCUGCGAAUUCUGCUGU | 0.753
11 | GGGGGCCACAGCAGAAGCGUUCACGUCGCGGCCGCUGUCAGAUUCUGGUGAAUCUGCGAAUUCUGGUGU | 0.434
12 | GGGGGCCACAGCAGAAGCGUUCACGUCGCGGCCACUGUCAGAUUCUGGUGAAUCUGCGAAAUCUGCUGU | 0.466
13 | GGGGGCCACAGCAGAAGCGUUCACGUCGCGGCCACUGUCAGAUUCUGGUGAAUCUGCGAACUCUGCUGU | 0.432
14 | GGGGGCCACAGCAGAAGCGUUCACGUCGCGGCCACUGUCAGAUUCUGGUGAAUCUGCGAAUACUGCUGU | 0.602
15 | GGGGGCCACAGCAGAAGCGUUCACGUCGCGGCCACUGUCAGAUUCUGGUGAAUCUGCGAAUCCUGCUGU | 0.358
16 | GGGGGCCACAGCAGAAGCGUUCACGUCGCGGCCACUGUCAGAUUCUGGUGAAUCUGCGAAUGCUGCUGU | 0.434
17 | GGGGGCCACAGCAGAAGCGUUCACGUCGCGGCCACUGUCAGAUUCUGGCGAAUCUGCGAAUUCUGCUGU | 0.79
18 | GGGGGCCACAGCAGAAGCGUUCACGUCGCGGCCACUGUCAGAUUCUGGAGAAUCUGCGAAUUCUGCUGU | 0.867
19 | GGGGGCCACAGCAGAAGCGUUCACGUCGCGGCCACUGUCAGAUUCUGGUGAAUCUGCGAAUUCAGCUGU | 0.794
20 | GGGGGCCACAGCAGAAGCGUUCACGUCGCGGCCACUGUCAGAUUCUGGUGAAUCUGCGAAUUCCGCUGU | 0.728

Row | Variant | self-cleavage
21 | GGGGGCCACAGCAGAAGCGUUCACGUCGCGGCCGCUGUCAGAUUCUGGUGAAUCUGCGAAUUGUGCUGU | 0.338
22 | GGGGGCCACAGCAGAAGCGUUCACGUCGCGGCCGCUGUCAGAUUCUUGUGAAUCUGCGAAUUCUGCUGU | 0.605
23 | GGGGGCCACAGCAGAAGCGUUCACGUCGCGGCCGCUGUCAGAUUCUCGUGAAUCUGCGAAUUCUGCUGU | 0.724
24 | GGGGGCCACAGCAGAAGCGUUCACGUCGCGGCCGCUGUCAGAUUCUAGUGAAUCUGCGAAUUCUGCUGU | 0.769
25 | GGGGGCCACAGCAGAAGCGUUCACGUCGCGGCCGCUGUCAGAUUCUGGAGAAUCUGCGAAUUCUGCUGU | 0.784
26 | GGGGGCCACAGCAGAAGCGUUCACGUCGCGGCCGCUGUCAGAUUCUGGCGAAUCUGCGAAUUCUGCUGU | 0.689
27 | GGGGGCCACAGCAGAAGCGUUCACGUCGCGGCCGCUGUCAGAUUCUGGGGAAUCUGCGAAUUCUGCUGU | 0.64
28 | GGGGGCCACAGCAGAAGCGUUCACGUCGCGGCCGCUGUCAGAUUCUGGUGAAUCUUCGAAUUCUGCUGU | 0.538
29 | GGGGGCCACAGCAGAAGCGUUCACGUCGCGGCCGCUGUCAGAUUCUGGUGAAUCUACGAAUUCUGCUGU | 0.579
30 | GGGGGCCACAGCAGAAGCGUUCACGUCGCGGCCGCUGUCAGAUUCUGGUGAAUCUGGGAAUUCUGCUGU | 0.332
31 | GGGGGCCACAGCAGAAGCGUUCACGUCGCGGCCACUGUCAGAUUCUGGUGAAUCUGCGAAUUCUGCUGA | 0.971
32 | GGGGGCCACAGCAGAAGCGUUCACGUCGCGGCCACUGUCAGAUUCUGGUGAAUCUGCGAAUUCUGCUGG | 0.947
33 | GGGGGCCACAGCAGAAGCGUUCACGUCGCGGCCGCUGUCAGAUUCUGGUGGAUCUGCGAAUUCUGCUGU | 0.625
34 | GGGGGCCACAGCAGAAGCGUUCACGUCGCGGCCGCUGUCAGAUUCUGGUGUAUCUGCGAAUUCUGCUGU | 0.671
35 | GGGGGCCACAGCAGAAGCGUUCACGUCGCGGCCGCUGUCAGAUUCUGGUGCAUCUGCGAAUUCUGCUGU | 0.504
36 | GGGGGCCACAGCAGAAGCGUUCACGUCGCGGCCGCUGUCAGAUUCUGGUGAAUCUGCGAAUUCUGCUGU | 0.74
37 | GGGGGCCACAGCAGAAGCGUUCACGUCGCGGCCGCUGUCAGAUUCUGGUGAAUCUGCGAAUUCUUCUGU | 0.325
38 | GGGGGCCACAGCAGAAGCGUUCACGUCGCGGCCGCUGUCAGAUUCUGGUGAAUCUGCGAAUUCUCCUGU | 0.331
39 | GGGGGCCACAGCAGAAGCGUUCACGUCGCGGCCACUGUCAGAGUCUGGUGAAUCUGCGAAUUCUGCUGU | 0.479
